The supplement of paper PMC7125110
± gives the standard error. For some of these results: This sample holds only a part of the variants without activity.

B1: glmS ribozyme (parent)
chain: AUAAAAGCGCCAGAACUACAGAAAUGUAGUUGACGAGGAGGAGGUUUAUCGAAUUUUCGGCGGAUGCCUCCAAA

Experiments:
Details in all cases: with glucosamine-6-phosphate
[1] = variants of: B1; assay: kcat; higher = faster cleavage; RNA array
Procedure, shortened: (§1)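 A hybridised Cy3 probe tracked barcoded ribozyme variants, transcribed in situ by E. coli RNA polymerase on sequenced MiSeq chips, at 37 °C. The variants received 40 μM to 10 mM glucosamine-6-phosphate in HEPES/KCl/Mg(OAc)2 buffer. kobs came from decay fits and kcat and KM from weighted Michaelis–Menten fits.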

[2] = variants of: B1; assay: self-cleavage kobs at 160 uM GlcN6P; higher = faster cleavage; RNA array
Procedure, shortened: as §1

[3] = variants of: B1; assay: KM; higher = weaker cofactor use; RNA array
Procedure, shortened: as §1

[4] = variants of: B1; assay: self-cleavage kobs at 640 uM GlcN6P; higher = faster cleavage; RNA array
Procedure, shortened: as §1

[5] = variants of: B1; assay: self-cleavage kobs at 2500 uM GlcN6P; higher = faster cleavage; RNA array
Procedure, shortened: as §1

[6] = variants of: B1; assay: self-cleavage kobs at 10000 uM GlcN6P; higher = faster cleavage; RNA array
Procedure, shortened: as §1

[7] = variants of: B1; assay: self-cleavage kobs at 40 uM GlcN6P; higher = faster cleavage; RNA array
Procedure, shortened: as §1

Variant	kcat [1] [s⁻¹]	self-cleavage kobs at 160 uM GlcN6P [2] [s⁻¹]	KM [3] [µM]	self-cleavage kobs at 640 uM GlcN6P [4] [s⁻¹]	self-cleavage kobs at 2500 uM GlcN6P [5] [s⁻¹]	self-cleavage kobs at 10000 uM GlcN6P [6] [s⁻¹]	self-cleavage kobs at 40 uM GlcN6P [7] [s⁻¹]
U46G C50A	< 1e-05	< 1e-05	–	–	–	–	–
G13U C71G	5.14e-05 ± 2.7e-06	–	155 ± 74	3.7e-05 ± 9e-06	5.35e-05 ± 1e-05	5.01e-05 ± 5.6e-06	–
G9U A48C C50G	–	–	92.6 ± 7.4	–	–	–	–
C8G G41U C71U	–	–	–	–	–	< 1e-05	< 1e-05
A6G G29C G51A	–	–	–	–	< 1e-05	< 1e-05	< 1e-05
C16A A42U	–	< 1e-05	–	–	–	–	< 1e-05
G43U G66C	–	< 1e-05	–	–	< 1e-05	–	< 1e-05
U54C C71A	0.00379 ± 0.00088	0.000296 ± 4.1e-05	1580 ± 530	0.00133 ± 0.00019	0.00192 ± 0.00026	0.0039 ± 0.00049	0.000112 ± 1.4e-05
G44U U56C	–	–	4890 ± 1500	–	–	–	–
A33U A48G A52U	–	–	–	–	–	–	< 1e-05
A6G A15C	7.64e-05 ± 3.5e-06	–	1700 ± 240	–	4.69e-05 ± 9.3e-06	6.45e-05 ± 1.1e-05	< 1e-05
U45G C61G	–	< 1e-05	–	< 1e-05	< 1e-05	< 1e-05	< 1e-05
A33U U56A C71A	–	–	–	–	–	–	< 1e-05
C8A G29U U57A G62C C67U	–	–	–	–	–	–	< 1e-05
A39U G59C	–	< 1e-05	–	< 1e-05	< 1e-05	< 1e-05	< 1e-05
U46G A48U C68U	–	–	–	–	–	–	< 1e-05
A12G C68A	2.58e-05 ± 7.3e-06	–	–	–	3.36e-05 ± 9e-06	1.95e-05 ± 7.6e-06	–
A12U A36U C50A U69G	–	–	–	–	0.000241 ± 5.7e-05	6.54e-05 ± 1.6e-05	9.31e-05 ± 2.3e-05
C34A U45A	–	< 1e-05	–	< 1e-05	< 1e-05	–	< 1e-05
U31C G35U A39C G44U U55A	–	< 1e-05	–	< 1e-05	< 1e-05	< 1e-05	< 1e-05
G9U A42U	–	< 1e-05	–	< 1e-05	< 1e-05	–	< 1e-05
A53C G63U C67G U69G	–	–	–	–	–	–	< 1e-05
G13C G59U	–	< 1e-05	–	< 1e-05	< 1e-05	–	< 1e-05

Variant	kcat [1] [s⁻¹]	self-cleavage kobs at 160 uM GlcN6P [2] [s⁻¹]	KM [3] [µM]	self-cleavage kobs at 640 uM GlcN6P [4] [s⁻¹]	self-cleavage kobs at 2500 uM GlcN6P [5] [s⁻¹]	self-cleavage kobs at 10000 uM GlcN6P [6] [s⁻¹]	self-cleavage kobs at 40 uM GlcN6P [7] [s⁻¹]
A15C G38U	–	–	67.7 ± 27	–	–	–	–
A6C G7A G40A	–	–	–	–	–	< 1e-05	< 1e-05
G7U G35U A39U	–	–	–	–	–	–	< 1e-05
A15C C16A G37U C70U C71G	1.25e-05 ± 2.5e-06	–	–	–	–	–	–
G51U G63C	–	–	–	< 1e-05	< 1e-05	< 1e-05	< 1e-05
G38U C70G	–	0.000289 ± 9.3e-05	–	0.000298 ± 0.00014	–	–	2.71e-05 ± 1e-05
G35C U49C	–	–	–	< 1e-05	–	–	< 1e-05
G13C C34A	–	–	–	< 1e-05	–	< 1e-05	< 1e-05
U46A C50G	–	–	–	–	< 1e-05	< 1e-05	< 1e-05
G32C U45G U65A	–	–	–	< 1e-05	–	< 1e-05	< 1e-05
A12G C50A	–	–	–	–	–	< 1e-05	< 1e-05
A53U C61U	–	< 1e-05	–	–	–	–	< 1e-05
U31C G40U	0.000615 ± 0.00011	4.05e-05 ± 1.4e-05	2870 ± 920	0.000122 ± 2.1e-05	0.000236 ± 4.1e-05	0.000515 ± 6.3e-05	–
G35U A48U	–	< 1e-05	–	< 1e-05	–	< 1e-05	< 1e-05
C16A G60U	–	< 1e-05	–	< 1e-05	< 1e-05	< 1e-05	< 1e-05
G38U G60A	–	–	–	–	–	–	< 1e-05
A12U U30C C68A	–	–	–	–	–	–	< 1e-05
C34A C50G C71U	–	0.000155 ± 6.7e-05	–	0.000408 ± 0.0001	0.000247 ± 0.00012	6.4e-05 ± 2.5e-05	6.66e-05 ± 3e-05
U65A C68G	4.89e-05 ± 9e-06	8.12e-05 ± 1.8e-05	–	6.22e-05 ± 1e-05	4.97e-05 ± 1.2e-05	3.81e-05 ± 7.3e-06	–
G9U A36U	–	–	–	< 1e-05	–	< 1e-05	< 1e-05
A39U U55G	–	0.00122 ± 0.0003	–	0.00371 ± 0.00061	0.00715 ± 0.0012	0.0282 ± 0.0058	0.000507 ± 7.9e-05
G41U A42U C70A	–	–	–	–	–	0.00204 ± 0.00044	0.000142 ± 2.3e-05
